For test [1], the target named is T1, 重组人NGF蛋白 (recombinant human nerve growth factor) (human, UniProt P01138 122-241).
T1 construct: also called 重组NGF蛋白; 重组NGF抗原
The test can be described thus: SPR, Biacore 8K, NGF coupled to CM5 chip, antibody as analyte, 1:1 binding model.

The next test deals with T2, 重组NT3 (神经营养因子3) (Rattus norvegicus (Rat), UniProt P18280 140-258).
T2 sequence: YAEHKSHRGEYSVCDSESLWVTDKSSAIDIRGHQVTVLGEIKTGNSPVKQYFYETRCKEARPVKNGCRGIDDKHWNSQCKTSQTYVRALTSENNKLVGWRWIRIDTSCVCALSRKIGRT
The test can be described thus: SPR, Biacore 8K, CM5 chip, antibody as analyte.

Another test addresses T3, 重组NT4 (神经营养因子4) (Homo sapiens (Human), UniProt P34130 81-210).
T3 sequence: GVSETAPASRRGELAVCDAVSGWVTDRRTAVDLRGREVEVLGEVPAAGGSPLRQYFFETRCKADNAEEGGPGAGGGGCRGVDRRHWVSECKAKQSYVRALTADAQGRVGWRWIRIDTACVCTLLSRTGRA
Description: SPR, Biacore 8K, CM5 chip, antibody as analyte.

Test [2] concerns the target T4, 重组BDNF (脑源性神经营养因子) (Helarctos malayanus (Malayan sun bear) …, UniProt O18753 129-247).
T4 sequence: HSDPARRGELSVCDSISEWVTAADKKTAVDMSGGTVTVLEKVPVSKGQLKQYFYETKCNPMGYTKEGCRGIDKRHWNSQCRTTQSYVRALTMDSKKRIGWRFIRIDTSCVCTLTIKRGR
Description: competition ELISA: coated NGF, antibody preincubated with recombinant BDNF.

For test [3], the target named is T1, 重组人NGF蛋白 (recombinant human nerve …). The test can be described thus: SPR, Biacore 8K, NGF coupled to CM5 chip, antibody as analyte, 1:1 binding model. This is another data set of the same source.
Test [4] concerns the target T4, 重组BDNF (脑源性神经营养因子). The test can be described thus: SPR, Biacore 8K, CM5 chip, antibody as analyte.

From patent CN113444176A (WUHAN RENFU INNOVATIVE DRUG R&D CENTER CO LTD; HUMANWELL …, dated 2021) come the findings set out here.

Read-outs that look alike come from different tables or passages of the source.

T1 sequence (P01138 122-241 limits assumed): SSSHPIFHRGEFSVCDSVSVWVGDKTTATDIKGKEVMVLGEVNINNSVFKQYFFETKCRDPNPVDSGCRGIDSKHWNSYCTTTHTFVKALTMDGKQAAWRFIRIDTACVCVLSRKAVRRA

B1: 鼠源抗体F3 (anti-NGF mouse monoclonal antibody F3) (antibody, mouse IgG1, kappa, V domains shown)
VH: EVMLVESGGDLVKPGGSLKLSCAASGFTFSRYAMSWVRQTPEKRLEWVATISSGGSYTYYPDSVKGRFTISRDNAKNTLYLQMSSLRSEDTAMFYCARHGEFYGTTFDVHYFDYWGQGTTLTVSS
VL: YIVLTQSPASLAVSLGQRATISCRASESVDSYGNSFMHWYQQKPGQPPKLLIYLASNLESGVPARFSGSGSRTDFTLTIDPVEADDAATYYCQQNNEDPLTFGTGTKLELKR
notes: Hybridoma antibody; also called 杂交瘤单抗F3
For the molecule B1, in test [1], the Kd was 0.335 nM, the koff worked out at 0.000121 s⁻¹ and the association rate constant (kon) was determined as 363000 M⁻¹ s⁻¹.

B2: 鼠源抗体G9 (anti-NGF mouse monoclonal antibody G9) (antibody, mouse IgG1, kappa, V domains shown)
VH: EVQLQQSGTVLARPGTSVRMSCKASGYTFTSYWMHWIKQRPGQGLEWIGAIYPGNSDTSYTQKFKGKAKLTAVTSTSTAYMELSSLTNEDSAVYYCTTPYGYDEDWYFNVWGAGTTVTVPS
VL: NIVMTQSPKSMSMSVGERVTLSCKASENVGTYVSWYQQKPEQPPKLLIYGASNRYTGVPDRFTGCGSATDFTLTISSVQAEDLADYHCGQSYSYPLTFGAGTKLELKR
notes: Hybridoma antibody; also called 杂交瘤单抗G9
As to B2, in test [1], the Kd stood at 1.29 nM, the koff was found to be 0.000283 s⁻¹ and the kon was found to be 219000 M⁻¹ s⁻¹.

B3: 人源化抗NGF抗体Ab01 (antibody, human IgG4 S228P, kappa, V domains shown)
VH: EVQLVESGGGLVKPGGSLRLSCAASGFTFSRYAMSWVRQAPGKGLEWVSTISSGGSYTYYPDSVKGRFTISRDNAKNSLYLQMNSLRAEDTAVYYCARHGEFYGTTFDVHYFDYWGQGTLVTVSS
VL: AIQLTQSPSSLSASVGDRVTITCRASESVDSYGNSFMHWYQQKPGKAPKLLIYLASNLESGVPSRFSGSGSGTDFTLTISSLQPEDFATYYCQQNNEDPLTFGGGTKVEIKR
notes: Humanised from F3; human IgG4 (S228P) heavy constant region and human kappa constant region; expressed in CHO cells
For the molecule B3, the binding result in the test with 重组NT3 (神经营养因子3) is given as “no binding”. The binding result with 重组NT4 (神经营养因子4) is recorded as “no binding”. Moreover, the binding result with 重组BDNF (脑源性神经营养因子) [2] is reported as “no binding”. Further, in test [3], the Kd was 0.151 nM, the koff was 4.35e-05 s⁻¹ and the kon amounted to 287000 M⁻¹ s⁻¹.

B4: 人源化抗NGF抗体Ab02 (antibody, human IgG4 S228P, kappa, V domains shown)
VH: EVQLVESGGGLVQPGGSLRLSCAASGFTFSRYAMSWVRQAPGKGLVWVSTISSGGSYTYYPDSVKGRFTISRDNAKNTLYLQMNSLRAEDTAVYYCARHGEFYGTTFDVHYFDYWGQGTLVTVSS
VL: EIVLTQSPATLSLSPGERATLSCRASESVDSYGNSFMHWYQQKPGQAPRLLIYLASNLESGIPDRFSGSGSGTDFTLTISRLEPEDFAVYYCQQNNEDPLTFGGGTKVEIKR
notes: as for B3
On to B4, for which the binding result with 重组BDNF (脑源性神经营养因子) [4] is recorded as “no binding”. The binding result in the test with 重组NT3 (神经营养因子3) is given as “no binding”. For the same molecule, the binding result with 重组NT4 (神经营养因子4) is recorded as “no binding”. For the same molecule, in test [3], the Kd is 0.137 nM, the koff amounted to 4.02e-05 s⁻¹ and the kon stood at 294000 M⁻¹ s⁻¹.

B5: 人源化抗NGF抗体Ab03 (antibody, human IgG4 S228P, kappa, V domains shown)
VH: EVQLVESGGGLVQPGGSLRLSCAASGFTFSRYAMSWVRQAPGKGLEWVSTISSGGSYTYYPDSVKGRFTISRDNAKNSLYLQMNSLRAEDTAVYYCARHGEFYGTTFDVHYFDYWGQGTLVTVSS
VL: EIVLTQSPATLSLSPGERATLSCRASESVDSYGNSFMHWYQQKPGQAPRLLIYLASNLESGIPARFSGSGSGTDFTLTISSLEPEDFAVYYCQQNNEDPLTFGGGTKVEIKR
notes: as for B3
In the case of B5, the binding result with 重组BDNF (脑源性神经营养因子) [4], with 重组NT3 (神经营养因子3) and in the test with 重组NT4 (神经营养因子4) was “no binding” each time. Moreover, the Kd in test [3] was determined as 0.0918 nM. Besides, the koff in test [3] came out at 2.78e-05 s⁻¹. Also, the kon in test [3] stood at 303000 M⁻¹ s⁻¹.
